The source of these data is patent US20070202116A1, “Treatment of micro-organism infection” (priority 2001, published 2007).

In this series the test system is human blood. Briefly: Blood compatibility study (haemolysis). Particulars: human blood, 37° C., 1 hour; 0.1 mg/ml. The procedure:
This study was carried out by Biochemical Pharmacology department at Inveresk Research, Scotland, in order to assess the suitability of Aurograb for intravenous administration.
Blood samples were taken from healthy human volunteers, transferred to tubes containing Aurograb, Aurograb vehicle, saponin or saline and incubated at 37° C. for 1 hour. After centrifugation, the amount of haemoglobin in the supernatant was then assessed to determine haemolysis.

B1: Aurograb: human genetic recombinant antibody (scFv with histidine tag, SEQ ID NO: 2) binding GrfA, a staphylococcal ABC transporter protein (protein)
scFv: MAKVQLLQSATEVKKPGASVKVSCKAYGYTFTDYGITWVRQAPGQGLEWMGWISAYNGYTNYAQKFQDRITMTTDASTSTAYMELRSLRPDDTAVLYCARDREDASLLRDGHWGQGTLVTVSSGGGGSGGGGSGGGGSGGGGSETTLTQSPGTLSLSPGERATLSCRASQIVSSSYLAWYQQKPGQAPRLLIYGASSRATGIPDRFSGSGSGTDFTLTISKLEPEDFAVYYCQHYGSSSPWTSRPRDQSDIKRAAALEHHHHHH
modifications: histidine tag; human single chain (scFv) recombinant antibody
In the case of B1, the “Haemolysis classification (ASTM F756-93)” value is given as “non-haemolytic”.
